Measurements reported in patent US20230295310A1 (ABCELLERA BIOLOGICS, published 2023).

What was measured:
[1] = biological target: T1, human CD3 expressed on cells (human, UniProt P07766 23-207; P04234 22-171; P09693 23-182); assay: flow cytometry, 25 nM, Jurkat cells (human primary T cells in c4 also <10)
T1 construct: whole, on cells; CD3 complex on Jurkat cells and on human primary T cells
Procedure: Purified antibodies were confirmed to bind CD3 expressed on cells using the CytoFLEX S or LX flow cytometers (Beckman Coulter). Antibodies were diluted to 25 nM in FACS buffer (PBS+2% FBS) and were incubated with CD3-expressing cells for 30 minutes at 4° C. […] The median fluorescence intensity of the binding signal for each antibody was normalized to the isotype control to obtain a fold over isotype value. An antibody with a fold over isotype (FOI) of ≥10 was considered to be positive for binding.

[2] = biological target: T2, cynomolgus monkey CD3 expressed on primary T cells (cynomolgus monkey, UniProt Q95LI5 22-198; Q95LI8 22-171; Q95LI7 23-181); assay: flow cytometry, 25 nM, cyno primary T cells
T2 construct: whole, on cells; CD3 complex on purified cynomolgus monkey T cells; also called cyno CD3
T2 sequence (Q95LI5 22-198, chain 1 of 3): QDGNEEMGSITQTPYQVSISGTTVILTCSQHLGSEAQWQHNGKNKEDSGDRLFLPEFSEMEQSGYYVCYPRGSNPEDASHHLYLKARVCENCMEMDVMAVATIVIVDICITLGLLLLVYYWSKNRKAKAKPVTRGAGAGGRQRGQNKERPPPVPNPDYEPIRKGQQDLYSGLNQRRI
T2 sequence (Q95LI8 22-171, chain 2 of 3): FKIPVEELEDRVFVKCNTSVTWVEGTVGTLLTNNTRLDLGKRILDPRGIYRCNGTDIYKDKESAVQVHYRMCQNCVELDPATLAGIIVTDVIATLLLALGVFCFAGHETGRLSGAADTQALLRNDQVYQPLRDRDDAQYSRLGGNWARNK
T2 sequence (Q95LI7 23-181, chain 3 of 3): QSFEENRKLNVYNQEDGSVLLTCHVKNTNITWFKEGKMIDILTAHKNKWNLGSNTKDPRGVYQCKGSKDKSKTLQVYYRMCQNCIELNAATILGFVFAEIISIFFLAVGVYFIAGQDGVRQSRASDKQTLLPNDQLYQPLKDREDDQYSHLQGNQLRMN
Method in brief: (§1)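 Antibodies at 25 nM in PBS + 2% FBS were incubated with CD3-expressing cells for 30 minutes at 4° C and analysed by flow cytometry. Median fluorescence intensity was normalized to isotype control to give fold over isotype (FOI); FOI ≥10 counted as binding.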

[3] = biological target: T1, human CD3 expressed on cells; assay: flow cytometry, 25 nM
Method in brief: as §1

T1 sequence (P07766 23-207, chain 1 of 3): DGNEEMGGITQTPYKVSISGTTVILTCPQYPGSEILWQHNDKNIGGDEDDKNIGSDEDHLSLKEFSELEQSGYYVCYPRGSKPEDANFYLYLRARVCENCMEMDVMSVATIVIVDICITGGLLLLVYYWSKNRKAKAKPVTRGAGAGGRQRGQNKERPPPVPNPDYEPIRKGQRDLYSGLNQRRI
T1 sequence (P04234 22-171, chain 2 of 3): as the sequence (Q95LI8 22-171, chain 2 of 3) above, with V5I, K15N, V20I, T32S, N33D, N34I, A64T, N74S, L83V, R141H counted along it
T1 sequence (P09693 23-182, chain 3 of 3): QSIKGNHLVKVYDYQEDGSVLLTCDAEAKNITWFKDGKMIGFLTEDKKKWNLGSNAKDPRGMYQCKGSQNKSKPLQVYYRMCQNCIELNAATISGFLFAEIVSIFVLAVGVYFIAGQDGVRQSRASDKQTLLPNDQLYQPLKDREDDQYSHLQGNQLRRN

binding result [1] | binding result [2] | Human primary T Cell Binding (FOI) [3] | Binder
no binding (tested: FOI >=10 = positive) | no binding (tested: FOI >=10 = positive) | 0.694 FOI | mAb 75 (antibody, V domains shown) VH: QVQLVQSGAEVKKPGASVRVSCKASGYTFTGNYIHWVRLAPGQGLEWMGWINPKSGRTQFVQKFQGRVTMTRDTSITTVYMELSRLRSDDTAVYYCARLGDLLNFDYWGQGTLVTVSS VL: not shown
no binding (tested: FOI >=10 = positive) | no binding (tested: FOI >=10 = positive) | 0.905 FOI | mAb 80 (antibody, V domains shown) VH: QVQLVQSGAEVKKPGASVKVSCKASGYTFAGYYLHWVRQAPGQGLEWMGWINPNSGRTESAQKFQGRVTLTRDTSITTAYMALSRLRSDDTAIYYCTRLEQLVFDYWGQGTLVTVSS VL: EIVLTQSPDFQSVTPKEKVTITCRASQSIGSSLHWYQQKPDQSPKLLIKYASQSFSGVPSRFSGSGSGTDFTLTINSLEAEDAATYYCHQSSSLPTFGQGTKVEIK
no binding (tested: FOI >=10 = positive) | no binding (tested: FOI >=10 = positive) | 0.594 FOI | mAb 89 (antibody, V domains shown) VH: QVQLVQSGAEVKKPGASVKVSCKASGYTFAGYYLHWVRQAPGQGLEWMGWINPNSGRTESAQKFQGRVTLTRDTSITTAYMALSRLRSDDTAIYYCTRLEQLVFDYWGQGTLVTVSS VL: DIQMTQSPSSLSASVGDRVTITCRASQGISNYLAWFQQKPGKAPKSLIYAASSLQSGVPSKFSGSGSGTDFTLTISSLQPEDFATYYCQQYNSYPITFGQGTRLEIK
no binding (tested: FOI >=10 = positive) | no binding (tested: FOI >=10 = positive) | 0.842 FOI | mAb 105 (antibody, V domains shown) VH: QVQLQESGPGLVKPSATLSLTCTVSGGSISTYYWSWIRQSPGKGLEWIGYISYSVNTNPSLKSRVTISVDKSKNQLSLNLRSATGADTAVYYCARGGLYGGNAGRFDLWGQGTLVTVSS VL: EIVLTQSPGTLSLSPGERATLSCRASQSVINNYVAWYQQKPGQAPSLIITGVSRRATGIPDRFIGSGSGTDFILIISRLEPEDFAVYCCQQYGNSPWTFGQGTRVEIK
no binding (tested: FOI >=10 = positive) | no binding (tested: FOI >=10 = positive) | 0.746 FOI | mAb 91 (antibody, V domains shown) VH: QVQLVQSGAEVKKPGASVKVSCKASGYTFTGYYIHWVRQAPGQGLEWMGWINPKSGNTVYAQRFQGRVTMTRDTSISTAYMDLSRLKSDDTAVYYCARLEQLVFDYWGQGALVTVSS VL: not shown
no binding (tested: FOI >=10 = positive) | no binding (tested: FOI >=10 = positive) | 0.526 FOI | mAb 103 (antibody, V domains shown) VH: QVQLVQSGAEVMKPGASVKVSCKASGYTFTDFYIHWVRQAPGQGLEWMGWINPKSGNTRFAQKFQGRVTMTRDTSIATSYMELSRLRSDDTAVFYCARMGDLLALDYWGQGTLVTVSS VL: EIVLTQSPATLSLSPGERATLSCRASQSVSSYLAWYQQKPGQAPRLLIYDASNRATGIPARFSGSGSGTDFTLTISSLEPEDFAVYYCQQRSNWYTFGQGTKLEIK
no binding (tested: FOI >=10 = positive) | no binding (tested: FOI >=10 = positive) | 0.778 FOI | mAb 104 (antibody, V domains shown) VH: QVQLVQSGAEVKKPGASVKVSCKASGYTFTDFYIHWVRQAPGQGLEWMGWINPKSGNTRFAQRFQGRVTMTRDTSITTSYMELSRLRSDDTAVFYCARMGDLLALDYWGQGTLVTVSS VL: not shown

The next lines start with the binder.

Binder | binding result [1] | binding result [2] | Human primary T Cell Binding (FOI) [3]
mAb 76 (antibody, V domains shown) VH: QVHLVQSGAEVKKPGASVKVSCKASGHTFTGFYVHWARQAPGQGLEWMGWIYSNSGRTSYSQKFQGRVAMTRDTSISTIYMDLSRLRSDDTAVYYCARLEQLVFDFWGQGTLVTVSS VL: not shown | no binding (tested: FOI >=10 = positive) | no binding (tested: FOI >=10 = positive) | 0.921 FOI
mAb 84 (antibody, V domains shown) VH: QVHLVQSGAEVKKPGASVKVSCKASGHSFTGYYVHWARQAPGQGLEWMGWIYSNSGRTSYAQKFQGRVTMTRDTSISTTYMELSRLRSDDTAVYYCARLDQLVFDYWGQGTLVTVSS VL: not shown | no binding (tested: FOI >=10 = positive) | no binding (tested: FOI >=10 = positive) | 0.805 FOI
mAb 82 (antibody, V domains shown) VH: QVHLVQSGAEVKKPGASVKVSCKASGHTFTGYYVHWARQAPGQGLEWMGWIYSNSGRTSYSQKFQGRVAMTRDTSISTIYMDLSRLRSDDTAVYYCARLEQLVFDFWGQGTLVTVSS VL: not shown | no binding (tested: FOI >=10 = positive) | no binding (tested: FOI >=10 = positive) | 0.954 FOI
mAb 88 (antibody, V domains shown) VH: QVHLVQSGAEVKKPGASVKVSCKASGHTFTGYYVHWARQAPGQGLEWMGWIYSNSGRTSYSQKFQGRVAMTRDTSINTIYMDLSRLRSDDTAVYYCARLEQLVFDFWGQGTLVTVSS VL: not shown | no binding (tested: FOI >=10 = positive) | no binding (tested: FOI >=10 = positive) | 0.885 FOI
mAb 107 (antibody, V domains shown) VH: QVQLQESGPGLVKPSETLSLTCTVSGGSISSYCWSWIRQPPGKGLEWIGYIYNIGSTNFNPSLKSRVTISVDTSKNQFSLKLNSVTAADTAVYYCARGGLYSGNGGRFDPWGRGTLVTVSS VL: EIVLTQSPGTLSLSPGQTATLSCRASQGVRSNYLAWYQQKPGQAPRLLIYGASSRATGIPVRFSGSGSGTGFTLTMSRLEPEDFAVYYCQQYGSSPWTFGQGSKVEIK | no binding (tested: FOI >=10 = positive) | no binding (tested: FOI >=10 = positive) | 0.743 FOI
mAb 108 (antibody, V domains shown) VH: QVQLVESGGGVVQPGRSLRLSCAASGFTFSSYGMHWVRQAPGKGLEWVAVIWYDGSNKYYEDSVKGRFTISRDNSKNTLHLQMNSLRVEDTAVYYCARGLEFDYWGQGTLVTVSS VL: DIVMTQTPLSSPVTLGQPASISCRSSQSLVHSDGITYLNWLQQRPGQPPRLLIYKISNRFSGVPDRFSGSGSGTDFTLKISRVEAEDVGVYYCMQATQFPWTFGQGTKVEIK | no binding (tested: FOI >=10 = positive) | no binding (tested: FOI >=10 = positive) | 0.772 FOI
mAb 87 (antibody, V domains shown) VH: QVQLVQSGAEMKKPGASVKVSCKASGYTFTDYYLHWVRRAPGHGLEWMGWIYPKSGRRNYAQHFQGRVTMTRDTSINTAYMELSSLRSDDSAVYFCVRLEQLVFDYWGQGTLVTVSS VL: not shown | no binding (tested: FOI >=10 = positive) | no binding (tested: FOI >=10 = positive) | 0.715 FOI
